Data as given in PMC7688916 (2020).

B1: GvpF fused to NGFP or CGFP (split-GFP) [Halobacterium salinarum PHH1] / GvpA fused to NGFP or CGFP (split-GFP) [Halobacterium salinarum PHH1] (parent complex)
chain 1: MTENLYTYGIIEQEDLELDVEGVAGAEQVYTVDYKTLSAVVSDIDTTDPERTDEDVEAHNNVLQEVLKHEEERTVVPMSFGMAFKSARTLKGVLRGARRALRSTLNDIEGTVELGVKILGPGDDTVPREEIQENVTDQLADLSINETENDLFTDRLIINKSYLVDFEKRDAFDSAIDDVEAEYDELTIQYTGPWPPYNFVDIHIGAEQQQGGR
chain 2: MAQPDSSGLAEVLDRVLDKGVVVDVWARVSLVGIEILTVEARVVAASVDTFLHYAEEIAKIEQAELTAGAEAAPEA

Variants of: B1
Assay: split-GFP; in Hfx. volcanii; FN fusion protein used as interaction partner; two biological and three technical replicates; parent: 20; read off a plot

First: chain 2 A41E
Second: chain 2 G33V
The response of the first is higher: about 19 relative fluorescence for the first, about 5.6 relative fluorescence for the second.

Going from chain 2 E11A to chain 2 D14A, the response rises from about 11 relative fluorescence to about 13 relative fluorescence.

Going from chain 2 K19D to chain 2 K19A, the response rises from about 5.4 relative fluorescence to about 9.8 relative fluorescence.

Going from chain 2 Y54A to chain 2 R42A, the response falls from about 14 relative fluorescence to about 12 relative fluorescence.

Compared with chain 2 R42E, chain 2 D5A is lower in response: about 12 relative fluorescence for the first, about 10 relative fluorescence for the second.

Going from chain 2 W26A to chain 2 H53A, the response falls from about 19 relative fluorescence to about 12 relative fluorescence.

First: chain 2 I61A
Second: chain 2 A46Y
The response of the first is higher: about 16 relative fluorescence for the first, about 11 relative fluorescence for the second.

Compared with chain 2 E65A, chain 2 L52E is higher in response: about 13 relative fluorescence for the first, about 19 relative fluorescence for the second.

Compared with chain 2 A45Y, chain 2 L17A is higher in response: about 9 relative fluorescence for the first, about 13 relative fluorescence for the second.

Going from chain 2 V29D to chain 2 A64Y, the response falls from about 19 relative fluorescence to about 14 relative fluorescence.

First: chain 2 R15A
Second: chain 2 E57A
The response of the first is lower: about 5.3 relative fluorescence for the first, about 12 relative fluorescence for the second.

Compared with chain 2 T38A, chain 2 A27E is lower in response: about 13 relative fluorescence for the first, about 5.2 relative fluorescence for the second.
